Where a chain is given by its changes, count along the chain named.
B1: PcBIS1 (Pyrus communis) (protein)
chain: MAPLVKNHVEPPHAKILAIGTANPPNVYYQKDYPDFLFRVTKNEHRTDLREKFDRICEKSRTRKRYLYLTEEILNANPSIYTYGAPSLDVRQDMLNPEVPKLGQQAALKAIKEWGQPISKITHLIFCTASCVDMPGADFQLVKLLGLNPSVTRTMIYEAGCYAGATVLRLAKDFAENNEDARVLVVCAEITTVFFHGLTDTHLDILVGQALFADGASAVIVGANPEPEIERPLFEIVACRQTIIPNSEHGVVANIREMGFNYYLSGDVPKFVGGSVVDFLTKTFEKVDGKNKDWNSLFLSVHPGGPAIVDQVEEQLGLKEGKLRATRHVLSEYGNMGAPSVHFILDEMRNKSIGEGKATTGEGLEWGVVIGIGPGLTVETAVLRSESIPC
B2: PcBIS2 (Pyrus communis) (protein)
chain: B1 chain with R231S, D267E, S275N, L299F, N350K, G354E

What was measured:
Assay in all cases: product formation, HPLC-DAD of ethyl acetate extract; Hanes plot
Format in all cases: biochemical, Pyrus communis
[1] = substrate: CC(C)(COP(=O)(O)OP(=O)(O)OC[C@H]1O[C@@H](n2cnc3c(N)ncnc32)[C@H](O)[C@@H]1OP(=O)(O)O)[C@@H](O)C(=O)NCCC(=O)NCCSC(=O)CC(=O)O; details: benzoyl-CoA as starter at saturation, 0.1 M potassium phosphate pH 7.0, 35°C, 5 min
Excerpt: (§1) product formation, HPLC-DAD of ethyl acetate extract; Hanes plot on PcBIS1

[2] = substrate: CC(C)(COP(=O)(O)OP(=O)(O)OC[C@H]1O[C@@H](n2cnc3c(N)ncnc32)[C@H](O)[C@@H]1OP(=O)(O)O)[C@@H](O)C(=O)NCCC(=O)NCCSC(=O)c1ccccc1; details: malonyl-CoA at saturation, 0.1 M potassium phosphate pH 7.0, 35°C, 5 min
Excerpt: as §1

[3] = substrate: CC(C)(COP(=O)(O)OP(=O)(O)OC[C@H]1O[C@@H](n2cnc3c(N)ncnc32)[C@H](O)[C@@H]1OP(=O)(O)O)[C@@H](O)C(=O)NCCC(=O)NCCSC(=O)c1ccccc1O; details: malonyl-CoA at saturation, 0.1 M potassium phosphate pH 7.0, 35°C, 5 min
Excerpt: as §1

[4] = substrate: CC(C)(COP(=O)(O)OP(=O)(O)OC[C@H]1O[C@@H](n2cnc3c(N)ncnc32)[C@H](O)[C@@H]1OP(=O)(O)O)[C@@H](O)C(=O)NCCC(=O)NCCSC(=O)CC(=O)O; details: benzoyl-CoA as starter at saturation, 0.1 M potassium phosphate pH 7.0, 35°C, 5 min; remark: listed apart in the source
Excerpt: (§2) product formation, HPLC-DAD of ethyl acetate extract; Hanes plot on PcBIS2

[5] = substrate: CC(C)(COP(=O)(O)OP(=O)(O)OC[C@H]1O[C@@H](n2cnc3c(N)ncnc32)[C@H](O)[C@@H]1OP(=O)(O)O)[C@@H](O)C(=O)NCCC(=O)NCCSC(=O)c1ccccc1; details: malonyl-CoA at saturation, 0.1 M potassium phosphate pH 7.0, 35°C, 5 min; remark: listed apart in the source
Excerpt: as §2

[6] = substrate: CC(C)(COP(=O)(O)OP(=O)(O)OC[C@H]1O[C@@H](n2cnc3c(N)ncnc32)[C@H](O)[C@@H]1OP(=O)(O)O)[C@@H](O)C(=O)NCCC(=O)NCCSC(=O)c1ccccc1O; details: malonyl-CoA at saturation, 0.1 M potassium phosphate pH 7.0, 35°C, 5 min; remark: listed apart in the source
Excerpt: as §2

Row | Protein | Km [1] | Km [2] | kcat [2] | kcat/Km [2] | Km [3] | kcat [3] | kcat/Km [3] | Km [4] | Km [5] | kcat [5] | kcat/Km [5] | Km [6] | kcat [6] | kcat/Km [6]
1 | B1 | 13.7 ± 2.9 µM | 1.1 ± 0.2 µM | 0.055 ± 0.005 s⁻¹ | 50000 M⁻¹ s⁻¹ | 78.4 ± 4.8 µM | 0.77 ± 0.075 s⁻¹ | 9820 M⁻¹ s⁻¹ | – | – | – | – | – | – | –
2 | B2 | – | – | – | – | – | – | – | 11.6 ± 2.2 µM | 0.9 ± 0.1 µM | 0.035 ± 0.00167 s⁻¹ | 38900 M⁻¹ s⁻¹ | 95.2 ± 5.4 µM | 0.89 ± 0.09 s⁻¹ | 9350 M⁻¹ s⁻¹
